Data taken from the supplement of paper PMC11811203.

B1: THAP1; numbered along this chain (parent)
chain: MVQSCSAYGCKNRYDKDKPVSFHKFPLTRPSLCKEWEAAVRRKNFKPTKYSSICSEHFTPDCFKRECNNKLLKENAVPTIFLCTEPHDKKEDLLEPQEQLPPPPLPPPVSQVDAAIGLLMPPLQTPVNLSVFCDHNYTVEDTMHQRKRIHQLEQQVEKLRKKLKTAQQRCRRQERQLEKLKEVVHFQKEKDDVSERGYVILPNDYFEIVEVPA

Variants of: B1
Assay: THAP1 transcriptional activity (GFP+/GFP- enrichment relative to wild-type constructs) (ratio to WT); higher = more THAP1 activity (PSMB5 reporter activation)
Settings: with PSMB5 promoter-GFP reporter
Protocol: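 Deep mutational scan of human THAP1. Site-saturation single amino acid variant library (residues 2-213) was expressed by lentivirus at MOI ~0.3 in THAP1-knockout HEK-293T cells carrying an endogenous PSMB5 promoter-GFP knock-in reporter. Five days post-transduction, BFP+ cells were FACS-sorted into GFP dim and GFP bright populations and variants were counted by Illumina sequencing. Activity is the GFP-bright/GFP-dim read fold change, mean of 2 replicates, divided by the mean fold change of wild-type (synonymous) constructs in the same screen pool; WT = 1.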

THAP1 transcriptional activity, by site and new letter:
C5: A 0.147; D 0.262; E 0.115; F 0.125; G 0.131; H 0.127; I 0.0585; K 0.167; L 0.147; M 0.18; N 0.208; P 0.0866; Q 0.133; R 0.132; S 0.0878; T 0.162; V 0.174; W 0.202; Y 0.118
S6: A 0.787; C 0.562; D 0.163; E 0.153; F 0.149; G 0.123; H 0.106; I 0.183; K 0.122; L 0.0726; M 0.172; N 0.174; P 0.185; Q 0.103; R 0.223; T 0.309; V 0.541; W 0.163; Y 0.202
A7: C 0.163; D 0.0976; E 0.154; F 0.19; G 0.118; H 0.179; I 0.165; K 0.186; L 0.156; M 0.279; N 0.133; P 0.0917; Q 0.1; R 0.122; S 0.122; T 0.0906; V 0.612; W 0.0983; Y 0.218
Y8: A 0.581; C 0.192; D 0.564; E 0.484; F 0.667; G 0.241; H 0.464; I 0.484; K 0.356; L 0.795; M 0.368; N 0.449; P 0.58; Q 0.509; R 0.374; S 0.467; T 0.785; V 0.472; W 1.08
G9: A 0.209; C 0.261; D 0.196; F 0.148; H 0.283; I 0.144; K 0.4; L 0.184; M 0.381; N 0.241; P 0.116; Q 0.115; R 0.256; S 0.167; T 0.132; V 0.0945; W 0.167; Y 0.149
C10: D 0.129; E 0.0982; F 0.113; G 0.098; H 0.0737; I 0.0687; K 0.156; L 0.167; M 0.103; N 0.121; P 0.114; Q 0.125; R 0.157; S 0.308; T 0.0641; V 0.175; W 0.125; Y 0.106
K11: A 0.284; C 0.369; D 0.0638; E 0.121; G 0.133; H 0.343; I 0.265; L 0.191; M 0.124; N 0.629; P 0.178; Q 0.354; R 0.771; S 0.282; T 0.513; V 0.529; W 0.0942; Y 0.201
N12: A 0.107; C 0.0986; D 0.0987; E 0.111; F 0.112; G 0.0923; H 0.108; I 0.0667; K 0.125; L 0.0949; M 0.199; P 0.0735; Q 0.22; R 0.172; S 0.283; T 0.097; V 0.129; W 0.121; Y 0.149
R13: A 0.17; C 0.132; D 0.115; E 0.153; F 0.14; G 0.106; H 0.117; I 0.116; K 0.211; L 0.229; M 0.0992; N 0.126; P 0.0852; Q 0.122; S 0.133; T 0.147; V 0.185; W 0.232; Y 0.0688
Y14: A 0.211; C 0.157; D 0.122; E 0.0718; F 0.5; G 0.085; H 0.106; I 0.119; K 0.083; L 0.146; M 0.0755; N 0.165; P 0.164; Q 0.142; R 0.36; S 0.124; T 0.0786; V 0.151; W 0.851
D15: A 0.754; C 0.853; E 0.569; F 0.272; G 0.411; H 0.997; I 0.436; K 0.704; L 0.298; M 0.419; N 0.605; P 0.107; Q 1.05; R 0.656; S 0.562; T 0.679; V 0.631; W 0.122; Y 0.172
K16: A 0.284; C 0.121; D 0.0673; E 0.125; F 0.117; G 0.17; H 0.0905; I 0.197; L 0.129; M 0.105; N 0.0777; P 0.334; Q 0.164; R 0.661; S 0.191; T 0.136; V 0.255; W 0.208; Y 0.158
D17: A 1.12; C 0.541; E 0.889; F 0.706; G 0.387; H 1.05; I 0.0905; K 1.31; L 0.861; M 1.14; N 0.707; P 0.129; Q 1.12; R 1.11; S 1.49; T 1.49; V 0.314; W 0.509; Y 0.747
K18: A 0.356; C 0.238; D 0.0802; E 0.152; F 0.11; G 0.258; H 0.202; I 0.444; L 0.367; M 0.186; N 0.432; P 0.0831; Q 0.511; R 0.936; S 0.384; T 0.348; V 0.618; W 0.131; Y 0.142
P19: A 0.691; C 0.529; D 0.681; E 0.528; F 0.276; G 0.547; H 0.266; I 0.186; K 0.674; L 0.412; M 0.208; N 0.682; Q 0.335; R 0.675; S 0.78; T 0.681; V 0.213; W 0.162; Y 0.197
V20: A 0.135; C 0.141; D 0.128; E 0.148; F 0.204; G 0.125; H 0.115; I 1.71; K 0.0912; L 0.297; M 0.155; N 0.161; P 0.101; Q 0.139; R 0.261; S 0.0781; T 0.58; W 0.141; Y 0.312
S21: A 0.0835; C 0.0926; D 0.0962; E 0.0854; F 0.11; G 0.164; H 0.0793; I 0.128; K 0.0427; L 0.0984; M 0.182; N 0.152; P 0.0702; Q 0.176; R 0.131; T 0.174; V 0.0819; W 0.115; Y 0.109
F22: A 0.115; C 0.0658; D 0.0567; E 0.0853; G 0.0652; H 0.12; I 0.178; K 0.0858; L 0.117; M 0.0987; N 0.0832; P 0.132; Q 0.121; R 0.0771
